Measurements published in paper PMC2881153.
Where two headings read alike, the source gives them in different places.

Columns and labels:
Fl-Imp3p;Rh-Imp4p = target: T1, Fl-Imp3p;Rh-Imp4p (Saccharomyces cerevisiae;Saccharomyces …, UniProt P32899;P53941 1-183;1-290, |); assay: ssFRET
T1 sequence 1: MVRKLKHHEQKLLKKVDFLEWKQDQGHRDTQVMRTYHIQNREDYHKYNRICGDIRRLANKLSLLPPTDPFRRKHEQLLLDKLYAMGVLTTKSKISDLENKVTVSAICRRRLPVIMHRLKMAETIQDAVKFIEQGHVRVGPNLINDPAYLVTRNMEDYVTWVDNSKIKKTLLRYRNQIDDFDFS
T1 sequence 2: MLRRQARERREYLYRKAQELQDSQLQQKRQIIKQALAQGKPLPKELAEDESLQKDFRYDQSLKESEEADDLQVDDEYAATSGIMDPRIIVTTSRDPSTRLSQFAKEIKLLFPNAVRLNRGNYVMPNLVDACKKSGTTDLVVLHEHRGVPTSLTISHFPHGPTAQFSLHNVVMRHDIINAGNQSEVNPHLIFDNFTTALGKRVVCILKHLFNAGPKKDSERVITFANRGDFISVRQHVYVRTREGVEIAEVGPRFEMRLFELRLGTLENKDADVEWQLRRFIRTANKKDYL

Imp3p = target: T2, Imp3p (Saccharomyces cerevisiae, UniProt P32899 1-183); assay: trFRET
T2 sequence: T1 sequence 1

Imp3p;Imp4p [1] = target: T3, Imp3p;Imp4p (Saccharomyces cerevisiae;Saccharomyces …, UniProt P32899;P53941 1-183;1-290, |); assay: trFRET
T3 sequence 1: T1 sequence 1
T3 sequence 2: T1 sequence 2

Imp3p;Imp4p [2] = target: T3, Imp3p;Imp4p; assay: trFRET; remark: listed apart in the source

Binder: GGACGUACUUCAUAGGAUCAUUUCUAUAGGAAUCGUCACUCUUUGACU (structured_RNA) [U3 MINI]
- binding result (Fl-Imp3p;Rh-Imp4p): binds

Binder: GGACGUACUUCAUAGGAUCAUUUCUAUAGGAAUCGUCACUCUUUGACU (structured_RNA) [Fl-U3 MINI-Rh]
- binding result (Imp3p): binds
- binding result (Imp3p;Imp4p [1]): binds

B1: Fl-U3 MINI-Rh with 18S (dsRNA)
RNA 1: GGACGUACUUCAUAGGAUCAUUUCUAUAGGAAUCGUCACUCUUUGACU
RNA 2: GGUUGAUCCUGCCAGUA
- binding result (Imp3p;Imp4p [2]): binds
